The source of these data is USRE43371 (dated 2012).

Square brackets hold non-standard residues; d marks the D form. MeBmt = C/C=C/C[C@@H](C)[C@@H](O)[C@H](NC)C(=O)O; NMeI = CC[C@H](C)[C@H](NC)C(=O)O; NMeL = CN[C@@H](CC(C)C)C(=O)O; NMeV = CN[C@H](C(=O)O)C(C)C; Abu = CC[C@H](N)C(=O)O; Sar = CNCC(=O)O

The target of one assay is cyclophilin (Sigma). Kind of assay: cell-based or functional assay.
Assay [1] deals with T1, human recombinant cyclophilin A (Sigma) (human, UniProt P62937 1-165).
T1 construct: Bought protein
T1 sequence (P62937 whole entry): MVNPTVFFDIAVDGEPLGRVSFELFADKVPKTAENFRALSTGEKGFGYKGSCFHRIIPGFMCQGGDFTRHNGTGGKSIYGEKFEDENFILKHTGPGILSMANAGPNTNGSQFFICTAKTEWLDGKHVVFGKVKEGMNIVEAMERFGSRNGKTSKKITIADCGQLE
Briefly: chymotrypsin-coupled spectrophotometric PPIase assay, tight binding inhibitor fit.

Sequence of cyclophilin (Sigma) (P62937 whole entry): as above

As to cyclo([MeBmt][Abu][Sar][NMeI]V[NMeL]A[dA][NMeL][NMeL][NMeV]) (also called [Melle]^4-CsA; NIM811) [[MeIle]^4-CsA], in the assay with cyclophilin (Sigma), the “PPIase (IC50 of inhibition of cyclophilin PPIase activity, relative to cyclosporin A = 1.0)” value was 0.5 relative to CsA. In addition, in assay [1], the Ki worked out at 2.11 nM.
